Values of other authors as cited in PMC4016011.

Target: neuronal nitric oxide synthase PDZ (UniProt P29475)
Sequence (P29475 17-99): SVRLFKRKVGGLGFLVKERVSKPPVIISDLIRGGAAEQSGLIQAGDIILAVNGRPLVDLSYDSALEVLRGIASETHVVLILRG

Chain of syntrophin PDZ (Q13424 87-170): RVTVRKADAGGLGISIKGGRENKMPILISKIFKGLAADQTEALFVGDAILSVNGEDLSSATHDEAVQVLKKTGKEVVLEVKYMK

Kd: 600 nM
Substance: syntrophin PDZ (from UniProt Q13424)
